Source: US20250074973A1 (ANNEXON, published 2025)

Target: T1, human C1q (complement factor C1q, chains A, B and C) (Homo sapiens, UniProt P02745 23-245; P02746 28-253; P02747 29-245)
T1 construct: Endogenous C1q in serum and CSF of the treated human subjects
Experiment: in vivo target engagement (PK/PD) in serum and CSF of dosed HD patients

T1 sequence (P02745 23-245 limits assumed, chain 1 of 3): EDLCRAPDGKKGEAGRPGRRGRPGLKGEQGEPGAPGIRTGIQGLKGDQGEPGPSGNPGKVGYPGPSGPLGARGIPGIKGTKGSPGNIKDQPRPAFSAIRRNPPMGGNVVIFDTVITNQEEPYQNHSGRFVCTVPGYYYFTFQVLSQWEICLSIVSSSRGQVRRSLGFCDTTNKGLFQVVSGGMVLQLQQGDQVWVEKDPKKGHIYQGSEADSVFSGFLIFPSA
T1 sequence (P02746 28-253 limits assumed, chain 2 of 3): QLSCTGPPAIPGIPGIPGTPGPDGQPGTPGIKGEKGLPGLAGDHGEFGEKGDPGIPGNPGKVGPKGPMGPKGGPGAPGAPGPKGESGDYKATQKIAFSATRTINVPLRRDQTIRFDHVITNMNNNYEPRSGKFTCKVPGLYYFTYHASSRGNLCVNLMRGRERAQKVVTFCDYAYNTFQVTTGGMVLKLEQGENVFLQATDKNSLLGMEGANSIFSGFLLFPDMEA
T1 sequence (P02747 29-245 limits assumed, chain 3 of 3): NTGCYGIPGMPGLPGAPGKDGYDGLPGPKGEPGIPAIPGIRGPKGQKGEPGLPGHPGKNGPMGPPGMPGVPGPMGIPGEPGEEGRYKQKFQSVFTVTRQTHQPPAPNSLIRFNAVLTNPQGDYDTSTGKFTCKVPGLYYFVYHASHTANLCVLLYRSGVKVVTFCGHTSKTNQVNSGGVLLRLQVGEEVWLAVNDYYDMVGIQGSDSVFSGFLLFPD

B1: full-length C1q antibody (heavy chain SEQ ID NO: 14; light chain SEQ ID NO: 40) (antibody, human IgG4 S228P, kappa)
heavy: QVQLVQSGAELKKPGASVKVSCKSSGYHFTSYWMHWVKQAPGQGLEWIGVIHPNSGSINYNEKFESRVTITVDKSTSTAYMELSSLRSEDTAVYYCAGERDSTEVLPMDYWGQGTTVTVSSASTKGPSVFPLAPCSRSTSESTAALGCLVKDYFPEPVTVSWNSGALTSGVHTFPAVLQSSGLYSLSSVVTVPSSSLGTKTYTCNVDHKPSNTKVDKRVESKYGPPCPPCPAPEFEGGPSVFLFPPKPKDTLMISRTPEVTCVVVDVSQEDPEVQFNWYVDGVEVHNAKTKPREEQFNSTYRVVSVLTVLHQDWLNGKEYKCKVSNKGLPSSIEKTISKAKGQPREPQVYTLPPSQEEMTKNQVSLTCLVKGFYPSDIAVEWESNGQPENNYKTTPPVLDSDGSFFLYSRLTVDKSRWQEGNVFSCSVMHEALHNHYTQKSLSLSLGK
light: DVQITQSPSSLSASLGERATINCRASKSINKYLAWYQQKPGKAPKLLIYSGSTLQSGIPARFSGSGSGTDFTLTISSLEPEDFAMYYCQQHNEYPLTFGQGTKLEIKRTVAAPSVFIFPPSDEQLKSGTASVVCLLNNFYPREAKVQWKVDNALQSGNSQESVTEQDSKDSTYSLSSTLTLSKADYEKHKVYACEVTHQGLSSPVTKSFNRGEC
notes: also called full-length anti-C1q antibody; anti-C1q antibody
- binding result: binds
